Measurements: PMC12083643, “Closed State Structure of the Pore Revealed by Uncoupled Shaker K+ Channel” (Research Square, 2025)

Biological target: the molecule itself
Assay: cryo-EM structure; single-particle cryo-EM of the purified channel in 0.02% GDN, 150 mM KCl, 2 mM TCEP, 1 mM EDTA, 50 mM TRIS pH 7.5; about 0.7 mg/mL; refinement with C4 symmetry

B1: Shaker-IR-I384R (natural protein, UniProt P08510 1-655, looked up)
chain: MAAVALREQQLQRNSLDGYGSLPKLSSQDEEGGAGHGFGGGPQHFEPIPHDHDFCERVVINVSGLRFETQLRTLNQFPDTLLGDPARRLRYFDPLRNEYFFDRSRPSFDAILYYYQSGGRLRRPVNVPLDVFSEEIKFYELGDQAINKFREDEGFIKEEERPLPDNEKQRKVWLLFEYPESSQAARVVAIISVFVILLSIVIFCLETLPEFKHYKVFNTTTNGTKIEEDEVPDITDPFFLIETLCIIWFTFELTVRFLACPNKLNFCRDVMNVIDIIAIIPYFITLATVVAEEEDTLNLPKAPVSPQDKSSNQAMSLAILRVIRLVRVFRIFKLSRHSKGLQRLGRTLKASMRELGLLIFFLFIGVVLFSSAVYFAEAGSENSFFKSIPDAFWWAVVTMTTVGYGDMTPVGVWGKIVGSLCAIAGVLTIALPVPVIVSNFNYFYHRETDQEEMQSQNFNHVTSCPYLPGTLGQHMKKSSLSESSSDMMDLDDGVESTPGLTETHPGRSAVAPFLGAQQQQQQPVASSLSMSIDKQLQHPLQQLTQTQLYQQQQQQQQQQQNGFKQQQQQTQQQLQQQQSHTINASAAAATSGSGSSGLTMRHNNALAVSIETDV
notes: Subcloned into a modified pEG BacMam vector with a C-terminal HRV 3C protease site, eGFP and 8x-His; the channel was released from the beads by HRV 3C protease; PDB 7SIP (Shaker-IR without I384R) was the template for model building; also called uncoupled channel; uncoupled I384R mutant; not shown: eGFP, C-terminal, cleaved; 8x-His, C-terminal, cleaved
stoichiometry N: 4
